Key:
[1] = target: IscU^N–GFP (E. coli K-12) (UniProt P0ACD4); assay: split reporter (BiFC, NanoBiT); BiFC by reconstitution of GFP from N-GFP and C-GFP fusions co-expressed in E. coli BL21(DE3) Gold; fluorescence microscopy of cells on agarose slides, normalised to empty vectors
[2] = target: IscS^C–GFP (E. coli K-12) (UniProt P0A6B7); assay: as above
Sequence of UniProt P0A6B7 (P0A6B7 whole entry): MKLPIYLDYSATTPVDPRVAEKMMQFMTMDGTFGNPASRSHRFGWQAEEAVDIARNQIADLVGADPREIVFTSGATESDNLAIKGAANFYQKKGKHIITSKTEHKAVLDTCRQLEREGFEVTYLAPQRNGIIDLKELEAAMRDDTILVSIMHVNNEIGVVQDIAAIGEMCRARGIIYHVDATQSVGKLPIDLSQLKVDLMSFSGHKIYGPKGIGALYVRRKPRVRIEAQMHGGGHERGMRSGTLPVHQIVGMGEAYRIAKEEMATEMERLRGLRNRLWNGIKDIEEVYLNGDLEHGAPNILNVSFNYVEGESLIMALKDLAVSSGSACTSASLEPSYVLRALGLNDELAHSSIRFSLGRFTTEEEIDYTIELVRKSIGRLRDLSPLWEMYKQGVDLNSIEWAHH

Sequence of UniProt P0ACD4 (P0ACD4 whole entry, the tested form may be a part): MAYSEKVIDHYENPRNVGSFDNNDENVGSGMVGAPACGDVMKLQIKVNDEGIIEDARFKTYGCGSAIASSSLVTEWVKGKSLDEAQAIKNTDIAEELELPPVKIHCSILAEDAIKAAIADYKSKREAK

| Substance | fold fluorescence over the control [1] | fold fluorescence over the control [2] |
| --- | --- | --- |
| YtfE^C–GFP (from UniProt P69506 1-220) (natural protein) | 3 fold |  |
| YtfE^N–GFP (from UniProt P69506 1-220) (natural protein) |  | 6 fold |

Reference: paper PMC8117158
